# Measured values as given in US20230416343A1 (SORRENTO THERAPEUTICS, published 2023).
# Biological target: S protein of live SARS-CoV-2 WA-1/2020 isolate (SARS-CoV-2, UniProt P0DTC2 14-1273)
# Assay: cell-based or functional assay
binder,measurement,value
"S1D7270LALA antibody (STI-2020) (antibody, V domains shown) VH: EVQLVESGGGLIQPGGSLRLSCAASGFTVSSNYMSWVRQAPGKGLEWVSIIYPGGSTEYADSVKGRFTISRDNSRNTLYLQMNSLRAEDTAVYYCARELGYYGMDVWGQGTTVTVSS VL: DIQMTQSPSSVSASVGDRVTITCRASQGISTWLVWYQQKPGKAPNLLIYGASSLQSGVPSRFSGSGSGTDFTLTISSLQPEDFATYYCQQANAYPYTFGQGTKLEIK","IC50, inhibition of cytopathic effect (CPE) on Vero E6 cells, live virus",0.055 mg/L
